Data from patent US20190194249A1 (NATIONAL INSTITUTE OF ADVANCED INDUSTRIAL SCIENCE AND …, published 2019).

Biological target: T1, pH 2.0-treated Fc (Fc region of human monoclonal IgG, acid-treated and neutralised) (human)
T1 construct: Dialysed at pH 2.0 for 12 h, then neutralised; also called acid-treated Fc region
Test: SPR (Biacore T100), AF.ab9 immobilised on CM5, Fc region as analyte

binding response relative to that on the acid-treated (non-native) Fab region: ≤ 0.01 fold
B1: Polypeptide AF.ab9 (SEQ ID NO: 8) (peptide)
peptide: PNSGGGGSYDPETGTWPQEIRLILNW
notes: Chemically synthesised; 8-residue linker + 8-residue chignolin + 10-residue selected region
